The data set concerns the molecule itself. The data set can be described thus: SDS-PAGE not boiled, fluorescence imaging of the gel.

B1: tdimer2(12) (tandem dimer of dimer2 with the 12 residue linker) (other)
chain: MRGSHHHHHHGMASMTGGQQMGRDLYDDDDKDPMVASSEDVIKEFMRFKVRMEGSVNGHEFEIEGEGEGRPYEGTQTAKLKVTKGGPLPFAWDILSPQFQYGSKAYVKHPADIPDYKKLSFPEGFKWERVMNFEDGGVVTVTQDSSLQDGTLIYKVKFRGTNFPPDGPVMQKKTMGWEASTERLYPRDGVLKGEIHQALKLKDGGHYLVEFKTIYMAKKPVQLPGYYYVDTKLDITSHNEDYTIVEQYERSEGRHHLFLGHGTGSTGSGSSMVASSEDVIKEFMRFKVRMEGSVNGHEFEIEGEGEGRPYEGTQTAKLKVTKGGPLPFAWDILSPQFQYGSKAYVKHPADIPDYKKLSFPEGFKWERVMNFEDGGVVTVTQDSSLQDGTLIYKVKFRGTNFPPDGPVMQKKTMGWEASTERLYPRDGVLKGEIHQALKLKDGGHYLVEFKTIYMAKKPVQLPGYYYVDTKLDITSHNEDYTIVEQYERSEGRHHLFL
notes: Exact junctions (SphI/SacI sites, start Met of second copy) are not spelled out
With B1, the binding result was “binds”.

(Values after US7687614 (University of California, dated 2010).)
